Results reported in patent US20120122239A1.

Key:
[1] = target: glycosylated human proBNP (HyTest, Turku, Finland; Catalog No. 8GOB2) (human); assay: sandwich CMIA, capture 15C4, analyte 43.3 pM
[2] = target: human NT-pro B-type natriuretic peptide (HyTest, Turku, Finland; Catalog No. 8NT1) (human); assay: sandwich CMIA, capture 15C4, analyte 43.3 pM
[3] = target: human pro B-type natriuretic peptide (HyTest, Turku, Finland; Catalog No. 8PRO8) (human); assay: sandwich CMIA, capture 15C4, analyte 43.3 pM
[4] = target: glycosylated human proBNP (HyTest, Turku, Finland; Catalog No. 8GOB2) (human); assay: sandwich CMIA, capture 15C4, analyte 86.6 pM
[5] = target: human NT-pro B-type natriuretic peptide (HyTest, Turku, Finland; Catalog No. 8NT1) (human); assay: sandwich CMIA, capture 15C4, analyte 86.6 pM
[6] = target: human pro B-type natriuretic peptide (HyTest, Turku, Finland; Catalog No. 8PRO8) (human); assay: sandwich CMIA, capture 15C4, analyte 86.6 pM
[7] = target: glycosylated human proBNP (HyTest, Turku, Finland; Catalog No. 8GOB2) (human); assay: sandwich CMIA, capture 15F11, analyte 43.3 pM
[8] = target: human NT-pro B-type natriuretic peptide (HyTest, Turku, Finland; Catalog No. 8NT1) (human); assay: sandwich CMIA, capture 15F11, analyte 43.3 pM
[9] = target: human pro B-type natriuretic peptide (HyTest, Turku, Finland; Catalog No. 8PRO8) (human); assay: sandwich CMIA, capture 15F11, analyte 43.3 pM
[10] = target: glycosylated human proBNP (HyTest, Turku, Finland; Catalog No. 8GOB2) (human); assay: sandwich CMIA, capture 15F11, analyte 86.6 pM
[11] = target: human NT-pro B-type natriuretic peptide (HyTest, Turku, Finland; Catalog No. 8NT1) (human); assay: sandwich CMIA, capture 15F11, analyte 86.6 pM
[12] = target: human pro B-type natriuretic peptide (HyTest, Turku, Finland; Catalog No. 8PRO8) (human); assay: sandwich CMIA, capture 15F11, analyte 86.6 pM
[13] = target: glycosylated human proBNP (HyTest, Turku, Finland; Catalog No. 8GOB2) (human); assay: sandwich CMIA, capture 15C4, analyte 288.7 pM
[14] = target: human NT-pro B-type natriuretic peptide (HyTest, Turku, Finland; Catalog No. 8NT1) (human); assay: sandwich CMIA, capture 15C4, analyte 288.7 pM
[15] = target: human pro B-type natriuretic peptide (HyTest, Turku, Finland; Catalog No. 8PRO8) (human); assay: sandwich CMIA, capture 15C4, analyte 288.7 pM
[16] = target: glycosylated human proBNP (HyTest, Turku, Finland; Catalog No. 8GOB2) (human); assay: sandwich CMIA, capture 15C4, analyte 577.4 pM
[17] = target: human NT-pro B-type natriuretic peptide (HyTest, Turku, Finland; Catalog No. 8NT1) (human); assay: sandwich CMIA, capture 15C4, analyte 577.4 pM
[18] = target: human pro B-type natriuretic peptide (HyTest, Turku, Finland; Catalog No. 8PRO8) (human); assay: sandwich CMIA, capture 15C4, analyte 577.4 pM
[19] = target: glycosylated human proBNP (HyTest, Turku, Finland; Catalog No. 8GOB2) (human); assay: sandwich CMIA, capture 15F11, analyte 288.7 pM
[20] = target: human NT-pro B-type natriuretic peptide (HyTest, Turku, Finland; Catalog No. 8NT1) (human); assay: sandwich CMIA, capture 15F11, analyte 288.7 pM
[21] = target: human pro B-type natriuretic peptide (HyTest, Turku, Finland; Catalog No. 8PRO8) (human); assay: sandwich CMIA, capture 15F11, analyte 288.7 pM
[22] = target: glycosylated human proBNP (HyTest, Turku, Finland; Catalog No. 8GOB2) (human); assay: sandwich CMIA, capture 15F11, analyte 577.4 pM
[23] = target: human NT-pro B-type natriuretic peptide (HyTest, Turku, Finland; Catalog No. 8NT1) (human); assay: sandwich CMIA, capture 15F11, analyte 577.4 pM
[24] = target: human pro B-type natriuretic peptide (HyTest, Turku, Finland; Catalog No. 8PRO8) (human); assay: sandwich CMIA, capture 15F11, analyte 577.4 pM
[25] = target: glycosylated human proBNP (HyTest, Turku, Finland; Catalog No. 8GOB2) (human); assay: sandwich CMIA, capture 15C4, analyte 0.0 pM (blank)
[26] = target: human NT-pro B-type natriuretic peptide (HyTest, Turku, Finland; Catalog No. 8NT1) (human); assay: as above
[27] = target: human pro B-type natriuretic peptide (HyTest, Turku, Finland; Catalog No. 8PRO8) (human); assay: as above
[28] = target: glycosylated human proBNP (HyTest, Turku, Finland; Catalog No. 8GOB2) (human); assay: sandwich CMIA, capture 15F11, analyte 0.0 pM (blank)
[29] = target: human NT-pro B-type natriuretic peptide (HyTest, Turku, Finland; Catalog No. 8NT1) (human); assay: as above
[30] = target: human pro B-type natriuretic peptide (HyTest, Turku, Finland; Catalog No. 8PRO8) (human); assay: as above
[31] = target: glycosylated human proBNP (HyTest, Turku, Finland; Catalog No. 8GOB2) (human); assay: sandwich CMIA, capture 15C4, 43.3 pM, against human NT-proBNP
[32] = target: human pro B-type natriuretic peptide (HyTest, Turku, Finland; Catalog No. 8PRO8) (human); assay: as above
[33] = target: glycosylated human proBNP (HyTest, Turku, Finland; Catalog No. 8GOB2) (human); assay: sandwich CMIA, capture 15C4, 86.6 pM, against human NT-proBNP
[34] = target: human pro B-type natriuretic peptide (HyTest, Turku, Finland; Catalog No. 8PRO8) (human); assay: as above
[35] = target: glycosylated human proBNP (HyTest, Turku, Finland; Catalog No. 8GOB2) (human); assay: sandwich CMIA, capture 15C4, 288.7 pM, against human NT-proBNP
[36] = target: human pro B-type natriuretic peptide (HyTest, Turku, Finland; Catalog No. 8PRO8) (human); assay: as above
[37] = target: glycosylated human proBNP (HyTest, Turku, Finland; Catalog No. 8GOB2) (human); assay: sandwich CMIA, capture 15C4, 577.4 pM, against human NT-proBNP
[38] = target: human pro B-type natriuretic peptide (HyTest, Turku, Finland; Catalog No. 8PRO8) (human); assay: as above
[39] = target: human pro B-type natriuretic peptide (HyTest, Turku, Finland; Catalog No. 8PRO8) (human); assay: sandwich CMIA, 15C4 (63-71) with 13G12 (13-20), against human NT-proBNP
[40] = target: human pro B-type natriuretic peptide (HyTest, Turku, Finland; Catalog No. 8PRO8) (human); assay: sandwich CMIA, 15C4 (63-71) with 18H5 (13-20), against human NT-proBNP

Sequence of human pro B-type natriuretic peptide (HyTest, Turku, Finland; Catalog No. 8PRO8) (human) (chain, as listed by the source): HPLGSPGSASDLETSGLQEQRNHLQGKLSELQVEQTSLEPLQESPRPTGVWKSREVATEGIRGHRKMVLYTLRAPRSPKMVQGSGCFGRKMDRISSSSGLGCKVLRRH
Sequence of human NT-pro B-type natriuretic peptide (HyTest, Turku, Finland; Catalog No. 8NT1) (human) (chain, as listed by the source): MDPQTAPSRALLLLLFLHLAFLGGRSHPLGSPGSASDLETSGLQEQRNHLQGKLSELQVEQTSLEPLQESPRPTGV

| Analyte rlus [1] [rlus] | Analyte rlus [2] [rlus] | Analyte rlus [3] [rlus] | Analyte rlus [4] [rlus] | Analyte rlus [5] [rlus] | Analyte rlus [6] [rlus] | Analyte rlus [7] [rlus] | Analyte rlus [8] [rlus] | Analyte rlus [9] [rlus] | Analyte rlus [10] [rlus] | Analyte rlus [11] [rlus] | Analyte rlus [12] [rlus] | Analyte rlus [13] [rlus] | Analyte rlus [14] [rlus] | Analyte rlus [16] [rlus] | Analyte rlus [17] [rlus] | Analyte rlus [18] [rlus] | Analyte rlus [19] [rlus] | Analyte rlus [20] [rlus] | Analyte rlus [21] [rlus] | Substance | further results |
| --- | --- | --- | --- | --- | --- | --- | --- | --- | --- | --- | --- | --- | --- | --- | --- | --- | --- | --- | --- | --- | --- |
| 905 | 10300 | 2220 | 912 | 25600 | 4080 | 798 | 777 | 800 | 767 | 761 | 802 | 967 | 131000 | 1240 | 309000 | 37200 | 831 | 820 | 920 | anti-human NT-proBNP/anti-human proBNP labeled monoclonal antibody 13G12 (HyTest, Turku, Finland) | Analyte rlus [15]: 16700 rlus; Analyte rlus [22]: 778 rlus; Analyte rlus [23]: 805 rlus; Analyte rlus [24]: 1080 rlus; Analyte rlus [25]: 892 rlus; Analyte rlus [26]: 892 rlus; Analyte rlus [27]: 892 rlus; Analyte rlus [28]: 841 rlus; Analyte rlus [29]: 841 rlus; Analyte rlus [30]: 841 rlus; % Cross-reactivity [31]: 0.1%; % Cross-reactivity [32]: 14.1%; % Cross-reactivity [33]: 0.1%; % Cross-reactivity [34]: 12.9%; % Cross-reactivity [35]: 0.1%; % Cross-reactivity [36]: 12.1%; % Cross-reactivity [37]: 0.1%; % Cross-reactivity [38]: 11.8%; % Cross-reactivity [39]: 10% |
| 756 | 18000 | 3380 | 783 | 39100 | 6590 | 618 | 621 | 628 | 737 | 636 | 664 | 1230 | 162000 | 1580 | 337000 | 46500 | 663 | 708 | 949 | anti-human NT-proBNP/anti-human proBNP labeled monoclonal antibody 18H5 (HyTest, Turku, Finland) | Analyte rlus [22]: 754 rlus; Analyte rlus [23]: 664 rlus; Analyte rlus [24]: 1440 rlus; Analyte rlus [25]: 704 rlus; Analyte rlus [26]: 704 rlus; Analyte rlus [27]: 704 rlus; Analyte rlus [28]: 626 rlus; Analyte rlus [29]: 626 rlus; Analyte rlus [30]: 626 rlus; % Cross-reactivity [31]: 0.3%; % Cross-reactivity [32]: 15.5%; % Cross-reactivity [33]: 0.2%; % Cross-reactivity [34]: 15.3%; % Cross-reactivity [35]: 0.3%; % Cross-reactivity [37]: 0.3%; % Cross-reactivity [38]: 13.6%; % Cross-reactivity [40]: 10% |
